In patent US20180186897A1 (INSTITUTE FOR RESEARCH IN BIOMEDICINE, published 2018):

T1: RIFIN PF3D7_1400600 (Plasmodium falciparum)
T1 construct: also called specific RIFIN
T1 chain: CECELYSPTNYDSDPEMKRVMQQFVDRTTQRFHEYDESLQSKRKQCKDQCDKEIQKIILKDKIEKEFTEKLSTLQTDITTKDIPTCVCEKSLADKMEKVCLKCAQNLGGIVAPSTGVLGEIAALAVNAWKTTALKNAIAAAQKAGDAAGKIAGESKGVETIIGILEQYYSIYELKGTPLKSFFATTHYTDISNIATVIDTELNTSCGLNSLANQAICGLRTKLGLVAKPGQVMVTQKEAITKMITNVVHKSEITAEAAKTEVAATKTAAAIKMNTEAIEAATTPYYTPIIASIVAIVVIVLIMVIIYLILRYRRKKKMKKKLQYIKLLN


How the values were obtained:
[1] = biological target: erythrocytes infected with P. falciparum field isolate 9775; assay: flow cytometry, staining of IEs
[2] = biological target: erythrocytes infected with P. falciparum field isolate 10936; assay: flow cytometry, staining of IEs
[3] = biological target: erythrocytes infected with P. falciparum field isolate 10975; assay: flow cytometry, staining of IEs
[4] = biological target: erythrocytes infected with P. falciparum field isolate 11019; assay: flow cytometry, staining of IEs
[5] = biological target: erythrocytes infected with P. falciparum field isolate 11014; assay: flow cytometry, staining of IEs
[6] = biological target: erythrocytes infected with P. falciparum field isolate 9106; assay: flow cytometry, staining of IEs
[7] = biological target: erythrocytes infected with P. falciparum field isolate 9215; assay: flow cytometry, staining of IEs
[8] = biological target: erythrocytes infected with P. falciparum field isolate 9605; assay: flow cytometry, staining of IEs
RIFIN PF3D7_1400600 = biological target: T1, RIFIN PF3D7_1400600; assay: immunoprecipitation with MGD21, LC-MS

Row | Binder | % parasite recognition [1] | % parasite recognition [2] | % parasite recognition [3] | % parasite recognition [4] | % parasite recognition [5] | % parasite recognition [6] | % parasite recognition [7] | % parasite recognition [8] | log2 fold change (enrichment in MGD21 immunoprecipitates of 3D7-MGD21+ against 3D7-MGD21- IEs) (RIFIN PF3D7_1400600)
1 | MGC34 (antibody) VH: EVQLVESGGGLVQPGGSLRLSCEASGFTFSSYWMSWVRQAPGKGLEWVANINQDGSQKDYVDSVKGRFTISRDTAKNSLYLQMNSLRAEDTAVYYCARERLCTDDSHMHGEEDLPRPSISAEPGTVIPLGSHVTFVCRGPVGIHTFRLERESRSLYTETEDVTQVSPSESEARFRIESVTEGNAGLYRCVYYKPPKWSEQSDYLELLVKGEDVTRALFTHCGGDGKESDYHMDVWGKGTTVTVSS VL: QTVVTQEPSLTVSPGGTVTLTCASSTGAVTSGYYPSWFHQKPGQPVRALIYSTSKTHSWTPARFSGSLLGGKAALTLSNVQPEDEADYYCLLYYGGPQPWVFGGGTKLTVQ | 17.5% | 11.3% | 15.2% | 34.1% | 11.4% | 6.8% | 27.1% | 23.7% | –
2 | MGC32 (antibody) VH: EVQLVESGGGLVQPGGSLRLSCVASGFNFRKSWMGWVRQAPGKGLEWVANIREDGSESFYADSVKGRFTVSRDNAKKSLYLHINSLRAEDTAVYYCARDRFCNDDEIHRHGQEDLPRPSISAAEGTVIPLGSHVTFVCRGPVGVQTFRLEKDSRSIYNDTENVSQPSPSESEARFRIDSVSEGNAGLYRCVYYKAPKWSAQSDYLELLVKGQEVTWALFTSCGGDGEEPDYDMDVRGKGTTVTVSS VL: DILMTQSPDSLAVSLGERATINCKSSQSVLYRSKNKNYLAWFQQKPGQPPKVLIYSTSTRASGVPDRFTGSGSGTDFTLTISSLQAEDVAVYYCLQYYITPYTFGQGTKLEIK | 7.9% | 2.9% | 3.2% | 38.1% | 4.5% | 7.8% | 13.1% | 22.9% | –
3 | MGC33 (antibody) VH: EVHLVESGGGLVQPGGSLRLSCEASGFTFSSYWMTWVRQAPGKGLEWVANINQDGSERYYVDSVKGRFTISRDTVKNSLYLQMNNLRAEDTAVYYCARQRFCSDGSLFHGEDLPRPTISAETGTVISLGSHVTFVCRGPLGVQTFRLERESRSRYSETEDVSQVGPSESEARFRIDSVSEGNAGLYRCIYYKPPKWSEQSDYLELRVKGEDVTWALLTYCGGDRDESDYYMDVWGKGTTVTVSS VL: QTVVTQEPSLTVSPGGTVTLTCASSTGSVTSGSFPNWFQQTPGQAPRSLIYSTTKKHSWTPARFSGSLLGGKAALTVSDTQPEDEAEYYCLLYCGGGQPWVFGGGTKLTVQ | 9.7% | 3.6% | 11.5% | 23.5% | 2.9% | 7.5% | 11.5% | 22.3% | –
4 | MGD21 (antibody, IgG1, Human mAb of donor D with LAIR-1 exon+intron insert in CDRH3; also called MGD21 ANTIBODY; mAb MGD21) VH: EVQLVETGPGLMKTSGTLSLTCAVSGDYVNTNRRWSWVRQAPGKGLEWIGEVHQSGRTNYNPSLKSRVTISVDKSKNQFSLKVDSVTAADTAVYYCARASPLKSQRDTDLPRPSISAEPGTVIPLGSHVTFVCRGPVGVQTFRLERERNYLYSDTEDVSQTSPSESEARFRIDSVNAGNAGLFRCIYYKSRKWSEQSDYLELVVKGEDVTWALSQSQDDPRACPQGELPISTDIYYVDVWGNGTTVTVSS VL: AIRMTQSPSSLSASPGDKVSITCRASQHINDSLAWFQQRPGKAPKLLIYGASNLHSGVPSRFSGTGSGTDFTLTITGLQSEDFATYFCQQCNCFPPDFGQGTRLEIK | – | – | – | – | – | – | – | – | > 2 log2 fold change
